From patent US20240360228A1 (BIOLEGEND, published 2024)
Substitutions are numbered along the chain they refer to.

What was measured:
[1] = biological target: T1, human chemokine (C-C motif) receptor 8 (CCR8) (human, UniProt P51685 1-355); experiment: flow cytometry blocking, PBMC CCR8+ CD4+ cells; competitor PE-AB6 (its MFI is read)
T1 construct: On human peripheral blood lymphocytes / PBMC (native) or on human CCR8 GFP-transfected Ba/F3 cells; also called hCCR8; human CCR8
Experimental: (§1) For blocking studies, 100 μL of the cell suspension were incubated with 10 μg purified isotype control, AB1, AB2, AB3, AB4, AB5, AB8, AB9, AB10, AB11, AB12, AB13, AB14, AB15, and Commercial ABI antibodies, or isotype control, as blocking agents.
(§2) After incubation with the blocking agent, the cells were incubated with 0.25 μg of the indicated PE-conjugated antibody plus anti-human CD4 APC or anti-human CD3 for another 15 minutes in the dark and then washed 2 times with Cell Staining Buffer, and acquired in a FACSCanto II flow cytometer (BD Biosciences); the data was analyzed using FCS Express (De Novo Software); MFI correspond to the CCR8+ CD4+ lymphocytes or CCR8+ CD3+ lymphocytes.
(§3) Percentage original MFI was calculated by dividing the MFI of samples blocked with AB1, AB2, AB3, AB4, AB5, AB6, AB7, AB8, AB9, AB10, AB11, AB12, AB13, AB14, AB15, and Commercial ABI antibodies, by the MFI of samples blocked with the corresponding isotype control. This value was subtracted from 100 to get a blocking percentage. The formula is shown below: […]

[2] = biological target: T1, human chemokine (C-C motif) receptor 8 …; experiment: flow cytometry blocking, PBMC CCR8+ CD4+ cells; competitor PE-AB4 (its MFI is read)
Experimental: as §1, §2, §3

[3] = biological target: T1, human chemokine (C-C motif) receptor 8 …; experiment: flow cytometry blocking, PBMC CCR8+ CD4+ cells; competitor PE-AB1 (its MFI is read)
Experimental: as §1, §2, §3

[4] = biological target: T1, human chemokine (C-C motif) receptor 8 …; experiment: flow cytometry blocking, PBMC CCR8+ CD4+ cells; competitor PE-ABII (its MFI is read)
Experimental: as §1, §2, §3

[5] = biological target: T1, human chemokine (C-C motif) receptor 8 …; experiment: flow cytometry blocking, PBMC CCR8+ CD4+ cells; competitor PE-AB5 (its MFI is read)
Experimental: as §1, §2, §3

[6] = biological target: T1, human chemokine (C-C motif) receptor 8 …; experiment: flow cytometry blocking, PBMC CCR8+ CD4+ cells; competitor PE-AB14 (its MFI is read)
Experimental: as §1, §2, §3

[7] = biological target: T1, human chemokine (C-C motif) receptor 8 …; experiment: flow cytometry blocking, PBMC CCR8+ CD4+ cells; competitor PE-AB15 (its MFI is read)
Experimental: as §1, §2, §3

[8] = biological target: T1, human chemokine (C-C motif) receptor 8 …; experiment: flow cytometry blocking, PBMC CCR8+ CD4+ cells; competitor PE-AB3 (its MFI is read)
Experimental: as §1, §2, §3

[9] = biological target: T1, human chemokine (C-C motif) receptor 8 …; experiment: cell-based or functional assay
[10] = biological target: T1, human chemokine (C-C motif) receptor 8 …; experiment: flow cytometry blocking, PBMC CCR8+ CD4+ cells; competitor PE-AB10 (its MFI is read)
Experimental: as §1, §2, §3

[11] = biological target: T1, human chemokine (C-C motif) receptor 8 …; experiment: flow cytometry blocking, PBMC CCR8+ CD4+ cells; competitor PE-AB2 (its MFI is read)
Experimental: as §1, §2, §3

[12] = biological target: T1, human chemokine (C-C motif) receptor 8 …; experiment: flow cytometry blocking, PBMC CCR8+ CD4+ cells; competitor PE-AB13 (its MFI is read)
Experimental: as §1, §2, §3

[13] = biological target: T1, human chemokine (C-C motif) receptor 8 …; experiment: flow cytometry blocking, PBMC CCR8+ CD4+ cells; competitor PE-AB12 (its MFI is read)
Experimental: as §1, §2, §3

[14] = biological target: T1, human chemokine (C-C motif) receptor 8 …; experiment: flow cytometry blocking, PBMC CCR8+ CD4+ cells; competitor PE-AB11 (its MFI is read)
Experimental: as §1, §2, §3

T1 sequence (P51685 whole entry): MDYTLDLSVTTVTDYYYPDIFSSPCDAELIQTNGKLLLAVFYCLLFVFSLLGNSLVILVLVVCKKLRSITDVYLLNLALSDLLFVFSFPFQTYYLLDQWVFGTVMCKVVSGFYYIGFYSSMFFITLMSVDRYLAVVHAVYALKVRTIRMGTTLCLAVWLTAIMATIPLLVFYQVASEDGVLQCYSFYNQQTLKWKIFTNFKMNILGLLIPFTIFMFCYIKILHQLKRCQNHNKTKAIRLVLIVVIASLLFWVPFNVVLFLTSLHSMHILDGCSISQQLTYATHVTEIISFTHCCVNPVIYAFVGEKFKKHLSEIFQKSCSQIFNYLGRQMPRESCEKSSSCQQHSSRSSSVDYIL

B1: AB13 (antibody, V domains shown)
VH: EVQLVETGGGLVQPKGSLKLSCAASGFTFNAYAMNWVRQAPGKGLEWVARIRTKSNNYATYYADSVKDRFTISRDDSQTMLYLQMNNLKTEDTAMYYCVRDRATVTTGRAMDYWGQGTSVTVSS
VL: DIVMTQAAPSLPVTPGESVSISCRSSKSLLHSNGNTYLYWFLQRAGQSPQLLIYRMSNLASGVPDRFSGSGSGTAFTLRISRVEAEDVGVYYCMQHLEYPFTFGSGTKLEIK
notes: Hybridoma monoclonal; also called antibody 13; clone 13
% Blocking [1]: -30.7% | MFI [1]: 1020 | % Blocking [2]: -42.8% | MFI [2]: 975 | % Blocking [3]: -41.5% | MFI [3]: 927 | % Blocking [4]: 12.2% | MFI [4]: 972 | % Blocking [5]: -35.7% | MFI [5]: 1020 | % Blocking [6]: -413% | MFI [6]: 4550 | % Blocking [7]: -15.9% | MFI [7]: 919 | % Blocking [8]: -39.7% | MFI [8]: 970 | % hCCR8-Ba/F3 - THP-1 complexes [9]: 1.16% | % Blocking [10]: -36.6% | MFI [10]: 1380 | % Blocking [11]: -54.3% | MFI [11]: 1030 | % Blocking [12]: 27.4% | MFI [12]: 680 | % Blocking [13]: -0.1% | MFI [13]: 977 | % Blocking [14]: 37.7% | MFI [14]: 562

B2: AB15 (antibody, V domains shown)
VH: EVQLVESGGGLVQPKGSLKLSCAASGFTFNTYAMNWVRQAPGKGLEWVARIRSKSNNYATYYVDSVKDRFTISRDDSQSMLYLQINNLKTEDTAMYYCVRGRELGPYSAMDYWGQGTSVTVSS
VL: B1 VL with L11V, A45P, V90L, S105G
notes: Hybridoma monoclonal; also called antibody 15; clone 15
% Blocking [1]: -35.7% | MFI [1]: 1060 | % Blocking [2]: -45.6% | MFI [2]: 994 | % Blocking [3]: -51.8% | MFI [3]: 995 | % Blocking [4]: -0.05% | MFI [4]: 1110 | % Blocking [5]: -29.4% | MFI [5]: 970 | % Blocking [6]: 38.4% | MFI [6]: 546 | % Blocking [7]: 19.4% | MFI [7]: 639 | % Blocking [8]: -61.4% | MFI [8]: 1120 | % hCCR8-Ba/F3 - THP-1 complexes [9]: 1.07% | % Blocking [10]: 1.55% | MFI [10]: 992 | % Blocking [11]: -60.8% | MFI [11]: 1080 | % Blocking [12]: -3.67% | MFI [12]: 971 | % Blocking [13]: 34.1% | MFI [13]: 643 | % Blocking [14]: 20.9% | MFI [14]: 713

B3: AB8 (antibody, V domains shown)
VH: AVQLVESGGGLVQPKESLKISCAASGFIFSNAAMYWVRQAPGKGLQWVARIRTKPKNYATYYIDSVKGRFTISRDDSKSMVYLQMDNLKTEDTAMYYCNTMGLTRAYYFDYWGQGVMVTVSS
VL: DIQMTQSPSFLSASVGDRVTINCKASQNINRYLNWYQQKLGEAPKLLIYNANSLQTGIPSRFSGSGSGTDFTLTIRSLQPEDVATYFCLQHNSWPWTFGGGTKLELK
notes: Hybridoma monoclonal; also called antibody 8; clone 8
% Blocking [1]: -20.4% | MFI [1]: 944 | % Blocking [2]: -40.9% | MFI [2]: 962 | % Blocking [3]: -49.5% | MFI [3]: 980 | % Blocking [4]: 27% | MFI [4]: 808 | % Blocking [5]: -27.2% | MFI [5]: 953 | % Blocking [6]: 6.78% | MFI [6]: 826 | % Blocking [7]: -56.6% | MFI [7]: 1240 | % Blocking [8]: -43.3% | MFI [8]: 994 | % hCCR8-Ba/F3 - THP-1 complexes [9]: 1.78% | % Blocking [10]: -81.3% | MFI [10]: 1830 | % Blocking [11]: -42.4% | MFI [11]: 953 | % Blocking [12]: 33.4% | MFI [12]: 623 | % Blocking [13]: 20.8% | MFI [13]: 773 | % Blocking [14]: 40.4% | MFI [14]: 537

B4: AB5 (antibody, V domains shown)
VH: QVQLKESGPGLVQPSQTLSLTCTVSGFSLTSYHVSWVRQPPGKGLEWMGVIWTGGSTTYNSLLKSRLSISRDISKSQVFLKMNSLQTEDTATYYCARGGTVVKGGFAYWGQGTLVTVSS
VL: DIQMTQSPASLSASLEEIVTITCQASQDIGNRLSWYQQKPGKSPQLLIYGATSLADGVPSRFSGSRSGTQYSLKISRLQVEDIGIYYCLQAYSTPLTFGSGTKLEIK
notes: Hybridoma monoclonal; also called antibody 5; clone 5
% Blocking [1]: 35.7% | MFI [1]: 504 | % Blocking [2]: -6.8% | MFI [2]: 729 | % Blocking [3]: 39.7% | MFI [3]: 395 | % Blocking [4]: -8.53% | MFI [4]: 1200 | % Blocking [5]: 44.9% | MFI [5]: 413 | % Blocking [6]: -4.39% | MFI [6]: 925 | % Blocking [7]: -6.62% | MFI [7]: 845 | % Blocking [8]: 47.3% | MFI [8]: 366 | % hCCR8-Ba/F3 - THP-1 complexes [9]: 1.51% | % Blocking [10]: -7.11% | MFI [10]: 1080 | % Blocking [11]: 47.1% | MFI [11]: 355 | % Blocking [12]: -5.77% | MFI [12]: 990 | % Blocking [13]: -17.2% | MFI [13]: 1140 | % Blocking [14]: -11.2% | MFI [14]: 1000
